Consider 6 molecules from patent US20130058934A1 (Novartis, published 2013).

The EC50 is the concentration that produces a half-maximal response. A higher EC50 goes with lower potency in that assay. The term koff denotes the first-order rate constant of dissociation. Broadly, the kon is the rate constant with which the complex forms. Higher therefore signals faster complex formation.

Experiment [1] concerns the target T1, LRP6-Fc (R&D Systems, catalog No: 1505-LR) (human, UniProt O75581 20-1370).
T1 construct: Purchased reagent; also called LRP6 protein; 360 KD homodimer antigen LRP6-Fc; not shown: Fc part of the purchased fusion
T1 sequence (looked up): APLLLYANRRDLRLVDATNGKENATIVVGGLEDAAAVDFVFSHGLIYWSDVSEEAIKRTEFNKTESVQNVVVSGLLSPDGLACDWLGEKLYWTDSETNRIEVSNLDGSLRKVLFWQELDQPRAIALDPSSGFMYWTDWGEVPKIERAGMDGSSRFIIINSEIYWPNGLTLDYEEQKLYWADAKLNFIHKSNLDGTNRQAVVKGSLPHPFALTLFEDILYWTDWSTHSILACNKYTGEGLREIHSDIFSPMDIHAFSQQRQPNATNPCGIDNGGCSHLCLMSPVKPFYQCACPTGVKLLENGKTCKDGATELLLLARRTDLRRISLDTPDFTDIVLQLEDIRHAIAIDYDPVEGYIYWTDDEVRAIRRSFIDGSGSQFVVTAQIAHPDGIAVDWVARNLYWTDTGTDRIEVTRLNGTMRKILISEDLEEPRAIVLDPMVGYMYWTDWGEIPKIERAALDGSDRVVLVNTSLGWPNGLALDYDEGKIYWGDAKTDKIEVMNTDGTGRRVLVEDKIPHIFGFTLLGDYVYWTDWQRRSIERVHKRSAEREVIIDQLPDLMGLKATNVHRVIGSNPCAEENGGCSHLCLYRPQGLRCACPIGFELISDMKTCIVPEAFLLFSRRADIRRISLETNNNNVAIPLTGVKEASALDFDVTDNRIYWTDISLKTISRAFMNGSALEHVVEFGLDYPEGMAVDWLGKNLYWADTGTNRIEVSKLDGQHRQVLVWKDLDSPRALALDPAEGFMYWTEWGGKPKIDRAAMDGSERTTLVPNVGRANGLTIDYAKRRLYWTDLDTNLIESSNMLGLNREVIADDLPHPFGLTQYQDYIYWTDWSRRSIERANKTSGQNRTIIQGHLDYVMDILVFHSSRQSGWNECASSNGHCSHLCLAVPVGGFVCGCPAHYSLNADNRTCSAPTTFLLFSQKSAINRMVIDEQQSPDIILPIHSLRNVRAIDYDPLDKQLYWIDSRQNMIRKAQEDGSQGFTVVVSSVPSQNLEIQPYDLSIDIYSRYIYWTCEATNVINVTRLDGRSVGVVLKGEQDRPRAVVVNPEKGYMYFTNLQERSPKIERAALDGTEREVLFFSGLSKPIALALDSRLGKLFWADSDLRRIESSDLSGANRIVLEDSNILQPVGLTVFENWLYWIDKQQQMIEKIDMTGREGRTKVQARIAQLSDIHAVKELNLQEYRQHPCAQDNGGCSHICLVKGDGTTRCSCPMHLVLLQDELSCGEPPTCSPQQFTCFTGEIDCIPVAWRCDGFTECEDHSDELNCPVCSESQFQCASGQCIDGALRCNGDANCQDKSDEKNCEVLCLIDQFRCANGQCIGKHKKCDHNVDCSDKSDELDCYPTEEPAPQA
The experiment can be described thus: ELISA on coated LRP6-Fc, detection with pentaHis-HRP. How it is done:
(§1) Binding EC₅₀ of scFvs against LRP6 protein was measured by ELISA. Maxisorp plate was coated with LRP6-Fc (R&D Systems, catalog No: 1505-LR) at 3 μg/ml at 4° C. overnight. The plate was blocked with 50 μl of 2% BSA for one hour, and washed five times with the wash solution. The samples were diluted with 1% BSA accordingly. The plate was incubated at RT for 1 h, and washed for 3 times. Detection was done by adding 50 μl pentaHis-HRP (Qiagen Mat. No. 1014992) at 1:2000 dilution in 1% BSA, incubated at RT for 1 h, and washed 3 times. 50 μl of substrate reagent A plus B (R&D systems) was added, then incubated for 5-20 min depending on the color. The reaction was stopped by adding 25 μl of the stop solution, followed by plate reading at 450 nm.
Affinity analysis ELISA EC₅₀ was carried out for both scFv08168 and scFv06475 wild type and variants.
(In general: ELISA stands for enzyme-linked immunosorbent assay.)

In experiment [2] the target is T1, LRP6-Fc (R&D Systems, catalog No: …). The experiment can be described thus: ELISA on coated LRP6-Fc, pentaHis-HRP detection. The protocol: as §1
For scFv06475, there were two mutations affecting the activity as detected by ELISA and Proteon kinetics analysis.

Experiment [3] has the same target. The experiment can be described thus: Proteon XPR36, scFv captured by anti-His IgG, LRP6-Fc as analyte, bivalent analyte model. The protocol:
Kinetics experiments were performed using BioRad's Proteon XPR36 biosensor. All experiments were performed at room temperature using PBST (phosphate buffered saline with 0.05% Tween-20) as the running buffer. All of the six vertical channels on a GLM chip were activated for 5 min at a flow rate of 30 μl/min using freshly prepared mixture of EDC (400 mM) and sNHS (100 mM). Anti-His mouse IgG1 (R&D systems, catalog No: MAB050) was diluted to 20 μg/ml in 10 mM sodium acetate, PH 5.0 and coupled to the chip for 5 min along separate vertical channels at a flow rate of 30 μl/min. 1 M ethanolamine was then injected for 5 min at 30 μl/min to deactivate the un-reacted sNHS groups. 2 μg/ml MOR08168 scFv wild type or 2 μg/ml MOR08168D1 mutant was then immobilized on different vertical channels for 15 sec at 100 μl/min followed by two 1 min injection of the running buffer at 30 μl/min in the horizontal direction. The sixth vertical channel was used as the channel reference and no ligand was immobilized on this channel. […] Association was monitored for 5 min and dissociation was monitored for 20 min. Buffer was injected in the sixth channel to serve as a row reference for real time baseline drifting correction. […] Kinetics analysis on the Proteon was performed in Proteon Manager v.2.1.1. […]

The target of another experiment is human LRP6 (human, UniProt O75581 20-1613). Put plainly: cell-based or functional assay.
In experiment [4] the target is T2, human FcRn (human, UniProt P55899 24-297; P61769 21-119, limits assumed). Put plainly: Biacore, pH 6.0; human FcRn at pH 6.0, Biacore; parental IgG, not IgG-scFv. In general terms: SPR reads the build-up and loss of mass on a sensor chip optically.
T2 sequence (P55899 24-297 limits assumed, form in doubt, chain 1 of 2): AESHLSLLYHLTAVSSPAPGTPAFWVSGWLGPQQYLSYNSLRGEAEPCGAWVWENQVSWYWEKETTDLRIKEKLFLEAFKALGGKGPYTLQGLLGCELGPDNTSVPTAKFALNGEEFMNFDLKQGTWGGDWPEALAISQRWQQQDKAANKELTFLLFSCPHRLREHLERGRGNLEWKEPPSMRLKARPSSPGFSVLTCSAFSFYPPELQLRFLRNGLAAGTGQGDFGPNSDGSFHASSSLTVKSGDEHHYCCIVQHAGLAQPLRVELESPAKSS
T2 sequence (P61769 21-119 limits assumed, form in doubt, chain 2 of 2): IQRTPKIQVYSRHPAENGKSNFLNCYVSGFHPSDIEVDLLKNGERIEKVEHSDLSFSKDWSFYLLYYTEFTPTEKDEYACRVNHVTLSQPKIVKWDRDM
The target in the next experiment is T3, cynoFcRn (cynomolgus monkey, UniProt Q8SPV9).
T3 construct: also called cynomolgus FcRn
Put plainly: Biacore, cynoFcRn at pH 6.0.

The target of the next experiment is T4, LRP6 PD1/2 (human, UniProt O75581 19-629).
T4 construct: range 19-629; Recombinant soluble fragment; also called Propeller Domains 1-2 of LRP6; recombinant LRP6 PD1/2
T4 sequence (looked up): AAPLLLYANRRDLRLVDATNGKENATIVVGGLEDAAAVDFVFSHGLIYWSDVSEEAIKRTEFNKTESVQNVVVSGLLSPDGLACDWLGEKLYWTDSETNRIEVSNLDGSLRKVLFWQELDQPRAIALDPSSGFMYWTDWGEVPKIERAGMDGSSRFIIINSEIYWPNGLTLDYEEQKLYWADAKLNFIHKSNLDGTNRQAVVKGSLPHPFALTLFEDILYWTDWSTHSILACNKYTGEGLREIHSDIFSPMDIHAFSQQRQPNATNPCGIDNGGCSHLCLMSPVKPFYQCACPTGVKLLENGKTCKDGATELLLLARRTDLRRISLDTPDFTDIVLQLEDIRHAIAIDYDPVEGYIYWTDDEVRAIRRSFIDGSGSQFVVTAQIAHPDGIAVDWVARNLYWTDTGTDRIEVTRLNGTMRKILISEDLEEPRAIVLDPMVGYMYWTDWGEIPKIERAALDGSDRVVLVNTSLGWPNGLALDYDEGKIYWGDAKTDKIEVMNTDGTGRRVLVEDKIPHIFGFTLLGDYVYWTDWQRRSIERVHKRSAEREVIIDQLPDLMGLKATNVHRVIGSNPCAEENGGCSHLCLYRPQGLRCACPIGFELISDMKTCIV
Put plainly: Biacore T-100 SPR, antibody captured by anti-human IgG Fc on a CM4 chip, PD1/2 injected; N = 4. The protocol:
(§2) The carboxymethyl dextran surface was activated with a 7 min injection of a 1:1 ratio of 0.4 M EDC (1-Ethyl-3-[3-dimethylaminopropyl]carbodiimide hydrochloride) and 0.1 M NHS(N-hydroxysuccinimide). […] PD1/2 and PD3/4 were prepared as two fold concentration series starting at 50 nM, and injected at 30 μl/min for 1 min. […] The surfaces were then regenerated two times with 10 mM glycine (pH 2.2). […] PD3/4 at a saturating concentration of 100 nM was then flowed over the surface at a flow rate of 30 μl/min for 30 min. A saturating concentration of 100 nM PD1/2 was injected immediately after the PD3/4. The dissociation constant (KD), association (kₒₙ), and dissociation (koff) rates were calculated from the baseline subtracted corrected binding curves using the BIAevaluation software (GE Healthcare).

The next experiment concerns the target T5, LRP6 PD3/4 (human, UniProt O75581 631-1246).
T5 construct: range 631-1246; Recombinant soluble fragment; also called Propeller Domains 3-4 of LRP6; recombinant LRP6 PD3/4
T5 sequence (looked up): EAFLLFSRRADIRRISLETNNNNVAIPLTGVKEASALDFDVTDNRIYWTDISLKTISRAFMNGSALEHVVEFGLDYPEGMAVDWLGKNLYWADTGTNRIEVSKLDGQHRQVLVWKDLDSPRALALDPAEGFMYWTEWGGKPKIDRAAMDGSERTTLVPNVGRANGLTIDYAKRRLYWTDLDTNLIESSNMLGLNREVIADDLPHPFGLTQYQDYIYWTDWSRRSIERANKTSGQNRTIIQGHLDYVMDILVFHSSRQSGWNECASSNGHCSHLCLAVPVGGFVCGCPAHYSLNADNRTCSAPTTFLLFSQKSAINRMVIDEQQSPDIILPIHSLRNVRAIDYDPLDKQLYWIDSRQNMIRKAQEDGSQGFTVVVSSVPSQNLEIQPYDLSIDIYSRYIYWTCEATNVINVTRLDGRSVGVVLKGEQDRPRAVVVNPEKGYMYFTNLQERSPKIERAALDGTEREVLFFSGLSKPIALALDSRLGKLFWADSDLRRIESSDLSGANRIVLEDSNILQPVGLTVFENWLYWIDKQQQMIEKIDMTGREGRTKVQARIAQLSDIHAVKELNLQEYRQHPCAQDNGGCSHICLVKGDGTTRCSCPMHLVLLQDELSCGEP
The experiment can be described thus: Biacore T-100 SPR, antibody captured by anti-human IgG Fc on a CM4 chip, PD3/4 injected; N = 3. How it is done:
as §2

The target in experiment [5] is T2, human FcRn. Put plainly: Biacore, pH 6.0; human FcRn at pH 6.0, Biacore; IgG-scFv format (only low level binding at pH 7.4).

Where a chain is given by its changes, count along the chain named. In names and notes the source's numbering stands.

B1: scFv06475 VH:G34V (scFv, name in Kabat numbering, V domains shown)
VH: QVQLKESGPALVKPTQTLTLTCTFSGFSLSNRGVGVGWIRQPPGKALEWLAWIDWDDDKSYSTSLKTRLTISKDTSKNQVVLTMTNMDPVDTATYYCARMHLPLVFDSWGQGTLVTVSS
VL: DIVLTQSPATLSLSPGERATLSCRASQFIGSRYLAWYQQKPGQAPRLLIYGASNRATGVPARFSGSGSGTDFTLTISSLEPEDFATYYCQQYYDYPQTFGQGTKVEIK
notes: Point mutant of scFv06475 (His tag)
As for B1, the values for the EC50 in experiment [1] and in experiment [2] were 27.4 nM and 27 nM, respectively.

B2: scFv06475 VH:I37F (scFv, name in Kabat numbering, V domains shown)
VH: B1 VH with V34G, I39F
VL: B1 VL
notes: as for B1
In experiment [2], B2 displayed an EC50 of 4.3 nM.

B3: scFv08168 wild type (scFv, V domains shown)
VH: QVQLVESGGGLVQPGGSLRLSCAASGFTFSDYVINWVRQAPGKGLEWVSGISWSGVNTHYADSVKGRFTISRDNSKNTLYLQMNSLRAEDTAVYYCARLGATANNIRYKFMDVWGQGTLVTVSS
VL: DIELTQPPSVSVAPGQTARISCSGDSLRNKVYWYQQKPGQAPVLVIYKNNRPSGIPERFSGSNSGNTATLTISGTQAEDEADYYCQSYDGQKSLVFGGGTKLTVL
notes: One polypeptide (scFv with His tag); also called MOR08168 scFv wild type
For B3, in experiment [3], the Kd worked out at 3.82 nM. Besides, the EC50 in experiment [1] was 2.04 nM. Moreover, the “IC50 by STF assay for Wnt1 inhibition” value with human LRP6 is 7.41 nM.

B4: scFv08168 D1 (VH:I34M + VH:S49A) (scFv, V domains shown)
VH: B3 VH with I34M, S49A
VL: B3 VL
notes: Double mutant of scFv08168 (His tag); also called MOR08168D1 mutant; double mutant D1
As to B4, the Kd in [3] is 2.55 nM. Also, the EC50 in [1] came to 1.61 nM.

B5: MOR08168 hIgG1LALA (antibody)
heavy: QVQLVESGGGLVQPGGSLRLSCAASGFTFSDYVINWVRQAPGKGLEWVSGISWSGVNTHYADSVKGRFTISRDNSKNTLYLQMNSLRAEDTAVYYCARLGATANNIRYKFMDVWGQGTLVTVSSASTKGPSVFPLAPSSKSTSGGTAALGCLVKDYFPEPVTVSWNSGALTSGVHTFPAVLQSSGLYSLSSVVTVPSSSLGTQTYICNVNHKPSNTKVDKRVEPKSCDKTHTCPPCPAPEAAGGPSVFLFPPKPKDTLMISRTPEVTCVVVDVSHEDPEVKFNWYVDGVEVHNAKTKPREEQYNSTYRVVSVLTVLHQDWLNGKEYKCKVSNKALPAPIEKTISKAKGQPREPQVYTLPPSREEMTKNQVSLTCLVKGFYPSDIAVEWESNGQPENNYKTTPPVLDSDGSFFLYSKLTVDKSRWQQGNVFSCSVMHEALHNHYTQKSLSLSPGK
light: DIELTQPPSVSVAPGQTARISCSGDSLRNKVYWYQQKPGQAPVLVIYKNNRPSGIPERFSGSNSGNTATLTISGTQAEDEADYYCQSYDGQKSLVFGGGTKLTVLGQPKAAPSVTLFPPSSEELQANKATLVCLISDFYPGAVTVAWKADSSPVKAGVETTTPSKQSNNKYAASSYLSLTPEQWKSHRSYSCQVTHEGSTVEKTVAPTECS
notes: Human IgG1 LALA / lambda; also called Propeller 1 IgG (MOR08168); MOR08168 (propeller 1 antibody)
For B5, the Kd turned out to be 23 nM with human FcRn [4], 280 nM with cynoFcRn and 1.08 nM with LRP6 PD1/2. The molecule further displayed a koff with LRP6 PD1/2 of 9.05e-05 s⁻¹. The kon with LRP6 PD1/2 came to 87200 M⁻¹ s⁻¹.

B6: anti-LRP6 MOR08168hIgG1LALA 6475 scfv (bispecific antibody)
heavy: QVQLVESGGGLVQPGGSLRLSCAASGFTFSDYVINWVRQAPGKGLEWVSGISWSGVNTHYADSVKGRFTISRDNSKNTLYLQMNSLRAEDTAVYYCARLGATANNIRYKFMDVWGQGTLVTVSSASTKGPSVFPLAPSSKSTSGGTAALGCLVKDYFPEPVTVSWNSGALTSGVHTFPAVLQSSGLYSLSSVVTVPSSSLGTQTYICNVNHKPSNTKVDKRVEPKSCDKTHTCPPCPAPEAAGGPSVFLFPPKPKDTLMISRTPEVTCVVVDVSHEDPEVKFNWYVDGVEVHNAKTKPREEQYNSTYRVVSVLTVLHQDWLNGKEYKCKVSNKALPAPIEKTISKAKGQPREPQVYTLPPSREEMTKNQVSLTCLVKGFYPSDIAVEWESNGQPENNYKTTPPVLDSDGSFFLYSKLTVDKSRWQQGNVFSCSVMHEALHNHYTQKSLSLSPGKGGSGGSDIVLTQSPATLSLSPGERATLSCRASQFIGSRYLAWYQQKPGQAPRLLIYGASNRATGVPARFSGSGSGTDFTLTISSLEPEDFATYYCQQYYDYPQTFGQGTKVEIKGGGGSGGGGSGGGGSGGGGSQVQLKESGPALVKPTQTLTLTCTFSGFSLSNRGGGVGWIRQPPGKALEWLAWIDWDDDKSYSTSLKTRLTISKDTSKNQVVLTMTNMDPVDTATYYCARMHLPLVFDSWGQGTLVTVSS
light: B5 light
notes: Biparatopic: MOR08168 IgG1 LALA with MOR06475 scFv (VL-(Gly4Ser)4-VH) fused by a (GlyGlySer)2 linker to the C-terminus of CH3; also called Biparatopic anti-LRP6 IgG scFv
In the experiment with LRP6 PD3/4, B6 gave a Kd of 1.93 nM, a koff of 0.000314 s⁻¹ and a kon of 211000 M⁻¹ s⁻¹. For the same molecule, in the experiment with human FcRn [5], the Kd stood at 21 nM. The molecule also displayed a Kd with cynoFcRn of 120 nM.
